This is an account of results in publication PMC3617563.

This test addresses C276A USP2 catalytic core (inactive active-site mutant) (human) (UniProt O75604). Put plainly: stopped-flow fluorescence.

Chain of C276A USP2 catalytic core (inactive active-site mutant) (human) (O75604 259-605 C276A): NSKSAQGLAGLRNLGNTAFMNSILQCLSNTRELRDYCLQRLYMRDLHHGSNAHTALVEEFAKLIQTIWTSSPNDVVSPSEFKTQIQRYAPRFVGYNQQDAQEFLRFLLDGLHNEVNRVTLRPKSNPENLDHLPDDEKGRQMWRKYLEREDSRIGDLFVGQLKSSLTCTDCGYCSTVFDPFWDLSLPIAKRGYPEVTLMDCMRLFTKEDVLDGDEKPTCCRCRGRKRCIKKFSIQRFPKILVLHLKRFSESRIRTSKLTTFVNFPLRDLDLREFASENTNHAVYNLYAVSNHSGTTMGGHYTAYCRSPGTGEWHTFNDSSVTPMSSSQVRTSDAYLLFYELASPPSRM

Turning to “native K48-linked diubiquitin (from UniProt P0CG48 1-76)”, the k1 (first step, association) was determined as 230000 M⁻¹ s⁻¹ and the k−1 (first step, dissociation) is 0.06 s⁻¹.
